For the data set, the system named is Bacillus subtilis. Description: cleaved RNA product abundance (RNA/gDNA barcode ratio) relative to median wild-type variant (ratio to wild type); higher = more accumulation of the downstream cleavage product. The settings on record: experiment (reporter, strain, medium): exp 8a: truncated aprE reporter, strain BJT201 with 2% xylose (RNase J1 expressed); cleavage site: glnRA (positions -5 to +31 mutated). An outline of the steps:
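The B. subtilis chromosome carried reporter mRNAs, truncated aprE or tetM, containing barcoded RNase Y cleavage-site windows mutagenized using oligos with a 9% error rate. After growth in LB at 37°C from OD600 0.0003 to 0.3, cleaved RNA was gel-selected, reverse transcribed and barcode-sequenced next to genomic DNA barcodes, with UMI collapsing. Each construct's RNA:gDNA barcode ratio was scaled to the median construct with the unmutated site. That scaled ratio is reported as cleaved product abundance.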
With “CGACATGTCCCGCTTCTTTCATTAATCCGTTAGCAATTATTTTGCTATATACATTTACCTTTTAAGAGGAGGAAT”, the “cleaved RNA product abundance” value was 1.14. Next, “CGACATGTCCCGCTTCTTTCATTAATCCGTTAGCAATTGTGTTGCTATATACATTTACCTTTTAAGAGGAGGAAT”: 0.947; “CGACATGTCCCGCTTCTTTCATTAATCCGTTAGCAATTGTTTAGCTATATACATTTACCTTTTAAGAGGAGGAAT”: 0.468. Then “CGACATGTCCCGCTTCTTTCATTAATCCGTTAGCAATTGTTTTGATATATACATTTACCTTTTAAGAGGAGGAAT”, with 0.65; and “CGACATGTCCCGCTTCTTTCATTAATCCGTTAGCAATTGTTTTGCCATATACATTTACCTTTTAAGAGGAGGAAT”, with 0.156; and “CGACATGTCCCGCTTCTTTCATTAATCCGTTAGCAATTGTTTTGCTAAATACATTTACCTTTTAAGAGGAGGAAT”, with 0.342. Consider “CGACATGTCCCGCTTCTTTCATTAATCCGTTAGCAATTGTTTTGCTATAGACATTTACCTTTTAAGAGGAGGAAT”, for which the “cleaved RNA product abundance” value was 0.345. Take “CGACATGTCCCGCTTCTTTCATTAATCCGTTAGCAATTGTTTTGCTATATAAATTTACCTTTTAAGAGGAGGAAT”: the “cleaved RNA product abundance” value came out at 1.01. Turning to “CGACATGTCCCGCTTCTTTCATTAATCCGTTAGCAATTGTTTTGCTATATACAATTACCTTTTAAGAGGAGGAAT”, the “cleaved RNA product abundance” value was determined as 1.24. With “CGACATGTCCCGCTTCTTTCATTAATCCGTTAGCAATTGTTTTGCTATATACATGTACCTTTTAAGAGGAGGAAT”, the “cleaved RNA product abundance” value turned out to be 0.526.

In the case of “CGACATGTCCCGCTTCTTTCATTAATCCGTTAGCAATTGTTTTGCTATATACATTAACCTTTTAAGAGGAGGAAT”, the “cleaved RNA product abundance” value came to 1.62.

Turning to “CGACATGTCCCGCTTCTTTCATTAATCCGTTAGCAATTGTTTTGCTATATACATTCACCTTTTAAGAGGAGGAAT”, the “cleaved RNA product abundance” value was 0.849. Next, “CGACATGTCCCGCTTCTTTCATTAATCCGTTAGCAATTGTTTTGCTATATACATTGACTTTTTAAGAGGAGGAAT”: 1.33; “CGACATGTCCCGCTTCTTTCATTAATCCGTTAGCAATTGTTTTGCTATATACATTTAACTTTTAAGAGGAGGAAT”: 1.06. Regarding “CGACATGTCCCGCTTCTTTCATTAATCCGTTAGCAATTGTTTTGCTATATACATTTACCTTTTAAGAGGAGGAAT”, the “cleaved RNA product abundance” value was 1.24. Consider “CGACATGTCCCGCTTCTTTCATTAATCCGTTAGCAATTGTTTTGCTATATACATTTACGTTTTAAGAGGAGGAAT”, for which the “cleaved RNA product abundance” value was determined as 1.1. With “CGACATGTCCCGCTTCTTTCATTAATCCGTTAGCAATTGTTTTGCTATATACATTTACTTTTTAAGAGGAGGAAT”, the “cleaved RNA product abundance” value was determined as 1.01. Turning to “CGACATGTCCCGCTTCTTTCATTAATCCGTTAGCAATTGTTTTGCTATATACATTTGCCTTTTAAGAGGAGGAAT”, the “cleaved RNA product abundance” value turned out to be 0.188. Then “CGACATGTCCCGCTTCTTTCATTAATCCGTTAGCAATTGTTTTGCTATATACCTTTACCTTTTAAGAGGAGGAAT”, with 0.3; and “CGACATGTCCCGCTTCTTTCATTAATCCGTTAGCAATTGTTTTGCTATATACTTTTACCTTTTAAGAGGAGGAAT”, with 0.272. Then “CGACATGTCCCGCTTCTTTCATTAATCCGTTAGCAATTGTTTTGCTATATAGATTTACCTTTTAAGAGGAGGAAT”, with 1.51; and “CGACATGTCCCGCTTCTTTCATTAATCCGTTAGCAATTGTTTTGCTATATGCATTTACCTTTTAAGAGGAGGAAT”, with 0.232; and “CGACATGTCCCGCTTCTTTCATTAATCCGTTAGCAATTGTTTTGCTTTATACATTTACCTTTTAAGAGGAGGAAT”, with 0.361. As to “CGACATGTCCCGCTTCTTTCATTAATCCGTTAGCAATTGTTTTGTTATATACATTTACCTTTTAAGAGGAGGAAT”, the “cleaved RNA product abundance” value worked out at 0.425. In the case of “CGACATGTCCCGCTTCTTTCATTAATCCGTTAGCAATTTTTTTGCTATATACATTTACCTTTTAAGAGGAGGAAT”, the “cleaved RNA product abundance” value amounted to 1.16. Consider “CGACATGTCCCGCTTCTTTCATTAATCCGTTAGCACCTCTTTTGCTATATACATTTACCTTTTAAGAGGAGGAAT”, for which the “cleaved RNA product abundance” value was determined as 0.235. As to “CGACATGTCCCGCTTCTTTCATTAATCCGTTAGCACCTGTTTTGCAATATACATTTACCTTTTAAGAGGAGGAAT”, the “cleaved RNA product abundance” value was determined as 0.351. Next, “CGACATGTCCCGCTTCTTTCATTAATCCGTTAGCACCTGTTTTGCTATATACAATTACCTTTTAAGAGGAGGAAT”: 0.867; “CGACATGTCCCGCTTCTTTCATTAATCCGTTAGCACCTGTTTTGCTATATACAGTTACCTTTTAAGAGGAGGAAT”: 0.393.

Turning to “CGACATGTCCCGCTTCTTTCATTAATCCGTTAGCACCTGTTTTGCTATATACATTTACCTTTTAAGAGGAGGAAT”, the “cleaved RNA product abundance” value stood at 0.748. On to “CGACATGTCCCGCTTCTTTCATTAATCCGTTAGCACCTGTTTTGCTATATACATTTACTTTTTAAGAGGAGGAAT”, for which the “cleaved RNA product abundance” value was determined as 0.499. Then “CGACATGTCCCGCTTCTTTCATTAATCCGTTAGCACCTGTTTTGCTATATATATTTACCTTTTAAGAGGAGGAAT”, with 1.44; and “CGACATGTCCCGCTTCTTTCATTAATCCGTTAGCAGCTGTTTTGCTATATACATTTACCTTTTAAGAGGAGGAAT”, with 0.754. Next, “CGACATGTCCCGCTTCTTTCATTAATCCGTTAGCAGCTGTTTTTCTATATACATTTACCTTTTAAGAGGAGGAAT”: 0.778; “CGACATGTCCCGCTTCTTTCATTAATCCGTTAGCATCTATTTTGCTATATACATTTACCTTTTAAGAGGAGGAAT”: 1.53. As to “CGACATGTCCCGCTTCTTTCATTAATCCGTTAGCATCTCTTTTGCTATATACATTTACCTTTTAAGAGGAGGAAT”, the “cleaved RNA product abundance” value turned out to be 0.59.

Consider “CGACATGTCCCGCTTCTTTCATTAATCCGTTAGCATCTGATTTGCTATATACATTTACCTTTTAAGAGGAGGAAT”, for which the “cleaved RNA product abundance” value stood at 1.34. Then “CGACATGTCCCGCTTCTTTCATTAATCCGTTAGCATCTGTTTTCCTATATACATTTACCTTTTAAGAGGAGGAAT”, with 0.524; and “CGACATGTCCCGCTTCTTTCATTAATCCGTTAGCATCTGTTTTGATATATACATTTACCTTTTAAGAGGAGGAAT”, with 0.491; and “CGACATGTCCCGCTTCTTTCATTAATCCGTTAGCATCTGTTTTGCTATATACATATACCTTTTAAGAGGAGGAAT”, with 0.727. “CGACATGTCCCGCTTCTTTCATTAATCCGTTAGCATCTGTTTTGCTATATACATTTAACTTTTAAGAGGAGGAAT”: the “cleaved RNA product abundance” value is 0.999.

“CGACATGTCCCGCTTCTTTCATTAATCCGTTAGCATCTGTTTTGCTATATACATTTACATTTTAAGAGGAGGAAT”: the “cleaved RNA product abundance” value came to 1.1. As to “CGACATGTCCCGCTTCTTTCATTAATCCGTTAGCATCTGTTTTGCTATATACATTTACCTTTTAAGAGGAGGAAT”, the “cleaved RNA product abundance” value came to 0.769. Then “CGACATGTCCCGCTTCTTTCATTAATCCGTTAGCATCTGTTTTGCTATATACATTTACGTTTTAAGAGGAGGAAT”, with 0.589.

On to “CGACATGTCCCGCTTCTTTCATTAATCCGTTAGCATCTGTTTTGCTATATACCTTTACCTTTTAAGAGGAGGAAT”, for which the “cleaved RNA product abundance” value stood at 0.152.

Take “CGACATGTCCCGCTTCTTTCATTAATCCGTTAGCATCTGTTTTGCTATATAGATTTACCTTTTAAGAGGAGGAAT”: the “cleaved RNA product abundance” value came to 0.899. Next, “CGACATGTCCCGCTTCTTTCATTAATCCGTTAGCATCTGTTTTGCTATATTCATTTACCTTTTAAGAGGAGGAAT”: 0.31. Then “CGACATGTCCCGCTTCTTTCATTAATCCGTTAGCATCTGTTTTTCTATATACATTTACCTTTTAAGAGGAGGAAT”, with 0.273. Next, “CGACATGTCCCGCTTCTTTCATTAATCCGTTAGCATCTTTTTTGCTATATACATTTACCTTTTAAGAGGAGGAAT”: 0.995; “CGACATGTCCCGCTTCTTTCATTAATCCGTTAGCCAATGTTTTGCTATATACATTTACCTTTTAAGAGGAGGAAT”: 0.576. Consider “CGACATGTCCCGCTTCTTTCATTAATCCGTTAGCCACTATTTTGCTATATACATTTACCTTTTAAGAGGAGGAAT”, for which the “cleaved RNA product abundance” value stood at 0.358. Then “CGACATGTCCCGCTTCTTTCATTAATCCGTTAGCCACTGTATTGCTATATACATTTACCTTTTAAGAGGAGGAAT”, with 0.376.

Regarding “CGACATGTCCCGCTTCTTTCATTAATCCGTTAGCCACTGTTTTGCTATAAACATTTACCTTTTAAGAGGAGGAAT”, the “cleaved RNA product abundance” value worked out at 0.219. Next, “CGACATGTCCCGCTTCTTTCATTAATCCGTTAGCCACTGTTTTGCTATATACAGTTACCTTTTAAGAGGAGGAAT”: 0.244; “CGACATGTCCCGCTTCTTTCATTAATCCGTTAGCCACTGTTTTGCTATATACATTTACCTTTTAAGAGGAGGAAT”: 0.478; “CGACATGTCCCGCTTCTTTCATTAATCCGTTAGCCACTGTTTTGCTATATACATTTACTTTTTAAGAGGAGGAAT”: 0.98. For the sequence “CGACATGTCCCGCTTCTTTCATTAATCCGTTAGCCACTGTTTTGTTATATACATTTACCTTTTAAGAGGAGGAAT”, the “cleaved RNA product abundance” value was 0.247.

“CGACATGTCCCGCTTCTTTCATTAATCCGTTAGCCAGTGTTTTGCTATATACATTTACCTTTTAAGAGGAGGAAT”: the “cleaved RNA product abundance” value is 0.333. Then “CGACATGTCCCGCTTCTTTCATTAATCCGTTAGCGACAGTTTTGCTATATACATTTACCTTTTAAGAGGAGGAAT”, with 0.233. As to “CGACATGTCCCGCTTCTTTCATTAATCCGTTAGCGACTGTTTAGCTATATACATTTACCTTTTAAGAGGAGGAAT”, the “cleaved RNA product abundance” value worked out at 0.681.

For “CGACATGTCCCGCTTCTTTCATTAATCCGTTAGCGACTGTTTTGATATATACATTTACCTTTTAAGAGGAGGAAT”, the “cleaved RNA product abundance” value was 0.24.
